# Source: patent US20260049138A1 (Chugai, published 2026)
# Substitutions are numbered along the chain they refer to. In names and notes the source's numbering stands.
# B1: GLS3000 Q27D one-arm antibody (antibody, human IgG1, kappa, L234A L235A, N297A, name in Kabat numbering)
# heavy: QVQLVESGGGVVQPGRSLRLSCAASGFTFSNAWMHWVRQAPGKGLEWVAQIKAKSNNYATYYAESVKGRFTISRDDSKNSLYLQMNSLKTEDTAVYYCRYVHYGAYYGVDAWGQGTTVTVSSASTKGPSVFPLAPSSKSTSGGTAALGCLVKDYFPEPVTVSWNSGALTSGVHTFPAVLQSSGLYSLSSVVTVPSSSLGTQTYICNVNHKPSNTKVDKKVEPKSCDKTHTCPPCPAPEAAGGPSVFLFPPKPKDTLMISRTPEVTCVVVDVSHEDPEVKFNWYVDGVEVHNAKTKPREEQYASTYRVVSVLTVLHQDWLNGKEYKCKVSNKALPAPIEKTISKAKGQPREPQVYTLPPSRCELTKNQVSLSCAVKGFYPSDIAVEWESNGQPENNYKTTPPVLDSDGSFFLVSKLTVDKSRWQQGNVFSCSVMHEALHNHYTQKSLSLSPDYKDDDDK
# chain: EPKSSDKTHTCPPCPAPELLGGPSVFLFPPKPKDTLMISRTPEVTCVVVDVSHEDPEVKFNWYVDGVEVHNAKTKPREEQYNSTYRVVSVLTVLHQDWLNGKEYKCKVSNKALPAPIEKTISKAKGQPREPQVCTLPPSRDELTKNQVSLWCLVKGFYPSDIAVEWESNGQPENNYKTTPPVLDSDGSFFLYSKLTVDKSRWQQGNVFSCSVMHEALHNRYTQKSLSLSP
# light: DIVMTQSPLSLPVTPGEPASISCRSSDSLVHSNRNTYLHWYQQKPGQAPRLLIYKVSNRFSGVPDRFSGSGSGTDFTLKISRVEAEDVGVYYCGQGTQVPYTFGQGTKLEIKRTVAAPSVFIFPPSDEQLKSGTASVVCLLNNFYPREAKVQWKVDNALQSGNSQESVTEQDSKDSTYSLSSTLTLSKADYEKHKVYACEVTHQGLSSPVTKSFNRGEC
# B2: GLS3000 Q90P one-arm antibody (antibody, human IgG1, kappa, L234A L235A, N297A, name in Kabat numbering)
# heavy: B1 heavy
# chain: B1 chain
# light: B1 light with D27Q, Q95P
# B3: GLS3000 R24P one-arm antibody (antibody, human IgG1, kappa, L234A L235A, N297A, name in Kabat numbering)
# heavy: B1 heavy
# chain: B1 chain
# light: B1 light with R24P, D27Q
# B4: GLS3000 Q27L one-arm antibody (antibody, human IgG1, kappa, L234A L235A, N297A, name in Kabat numbering)
# heavy: B1 heavy
# chain: B1 chain
# light: B1 light with D27L
# B5: GLS3000 Q93E one-arm antibody (antibody, human IgG1, kappa, L234A L235A, N297A, name in Kabat numbering)
# heavy: B1 heavy
# chain: B1 chain
# light: B1 light with D27Q, Q98E
# B6: GLS3000 Q93Y one-arm antibody (antibody, human IgG1, kappa, L234A L235A, N297A, name in Kabat numbering)
# heavy: B1 heavy
# chain: B1 chain
# light: B1 light with D27Q, Q98Y
# B7: GLS3000 R24G one-arm antibody (antibody, human IgG1, kappa, L234A L235A, N297A, name in Kabat numbering)
# heavy: B1 heavy
# chain: B1 chain
# light: B1 light with R24G, D27Q
# B8: GLS3000 Q93D one-arm antibody (antibody, human IgG1, kappa, L234A L235A, N297A, name in Kabat numbering)
# heavy: B1 heavy
# chain: B1 chain
# light: B1 light with D27Q, Q98D
# B9: GLS3000 R29D one-arm antibody (antibody, human IgG1, kappa, L234A L235A, N297A, name in Kabat numbering)
# heavy: B1 heavy
# chain: B1 chain
# light: B1 light with D27Q, R34D
# B10: GLS3000 Q90S one-arm antibody (antibody, human IgG1, kappa, L234A L235A, N297A, name in Kabat numbering)
# heavy: B1 heavy
# chain: B1 chain
# light: B1 light with D27Q, Q95S
# B11: GLS3000 R29L one-arm antibody (antibody, human IgG1, kappa, L234A L235A, N297A, name in Kabat numbering)
# heavy: B1 heavy
# chain: B1 chain
# light: B1 light with D27Q, R34L
# B12: GLS3000 Q27P one-arm antibody (antibody, human IgG1, kappa, L234A L235A, N297A, name in Kabat numbering)
# heavy: B1 heavy
# chain: B1 chain
# light: B1 light with D27P
# B13: GLS3000 R24S one-arm antibody (antibody, human IgG1, kappa, L234A L235A, N297A, name in Kabat numbering)
# heavy: B1 heavy
# chain: B1 chain
# light: B1 light with R24S, D27Q
# B14: GLS3000 Q90Y one-arm antibody (antibody, human IgG1, kappa, L234A L235A, N297A, name in Kabat numbering)
# heavy: B1 heavy
# chain: B1 chain
# light: B1 light with D27Q, Q95Y
# B15: GLS3000 R29G one-arm antibody (antibody, human IgG1, kappa, L234A L235A, N297A, name in Kabat numbering)
# heavy: B1 heavy
# chain: B1 chain
# light: B1 light with D27Q, R34G
# B16: GLS3000 Q93R one-arm antibody (antibody, human IgG1, kappa, L234A L235A, N297A, name in Kabat numbering)
# heavy: B1 heavy
# chain: B1 chain
# light: B1 light with D27Q, Q98R
# B17: GLS3000 R29A one-arm antibody (antibody, human IgG1, kappa, L234A L235A, N297A, name in Kabat numbering)
# heavy: B1 heavy
# chain: B1 chain
# light: B1 light with D27Q, R34A
# B18: GLS3000 R24D one-arm antibody (antibody, human IgG1, kappa, L234A L235A, N297A, name in Kabat numbering)
# heavy: B1 heavy
# chain: B1 chain
# light: B1 light with R24D, D27Q
# B19: GLS3000 Q93A one-arm antibody (antibody, human IgG1, kappa, L234A L235A, N297A, name in Kabat numbering)
# heavy: B1 heavy
# chain: B1 chain
# light: B1 light with D27Q, Q98A
# B20: GLS3000 R24Q one-arm antibody (antibody, human IgG1, kappa, L234A L235A, N297A, name in Kabat numbering)
# heavy: B1 heavy
# chain: B1 chain
# light: B1 light with R24Q, D27Q
# B21: GLS3000 R24Y one-arm antibody (antibody, human IgG1, kappa, L234A L235A, N297A, name in Kabat numbering)
# heavy: B1 heavy
# chain: B1 chain
# light: B1 light with R24Y, D27Q
# B22: GLS3000 R24T one-arm antibody (antibody, human IgG1, kappa, L234A L235A, N297A, name in Kabat numbering)
# heavy: B1 heavy
# chain: B1 chain
# light: B1 light with R24T, D27Q
# B23: GLS3000 Q93S one-arm antibody (antibody, human IgG1, kappa, L234A L235A, N297A, name in Kabat numbering)
# heavy: B1 heavy
# chain: B1 chain
# light: B1 light with D27Q, Q98S
# B24: GLS3000 Q90E one-arm antibody (antibody, human IgG1, kappa, L234A L235A, N297A, name in Kabat numbering)
# heavy: B1 heavy
# chain: B1 chain
# light: B1 light with D27Q, Q95E
# B25: GLS3000 Q90D one-arm antibody (antibody, human IgG1, kappa, L234A L235A, N297A, name in Kabat numbering)
# heavy: B1 heavy
# chain: B1 chain
# light: B1 light with D27Q, Q95D
# B26: GLS3000 Q90A one-arm antibody (antibody, human IgG1, kappa, L234A L235A, N297A, name in Kabat numbering)
# heavy: B1 heavy
# chain: B1 chain
# light: B1 light with D27Q, Q95A
# B27: GLS3000 R29I one-arm antibody (antibody, human IgG1, kappa, L234A L235A, N297A, name in Kabat numbering)
# heavy: B1 heavy
# chain: B1 chain
# light: B1 light with D27Q, R34I
# B28: GLS3000 Q27E one-arm antibody (antibody, human IgG1, kappa, L234A L235A, N297A, name in Kabat numbering)
# heavy: B1 heavy
# chain: B1 chain
# light: B1 light with D27E
# B29: GLS3000 R24E one-arm antibody (antibody, human IgG1, kappa, L234A L235A, N297A, name in Kabat numbering)
# heavy: B1 heavy
# chain: B1 chain
# light: B1 light with R24E, D27Q
# B30: GLS3000 R24A one-arm antibody (antibody, human IgG1, kappa, L234A L235A, N297A, name in Kabat numbering)
# heavy: B1 heavy
# chain: B1 chain
# light: B1 light with R24A, D27Q
# B31: GLS3000 Q93P one-arm antibody (antibody, human IgG1, kappa, L234A L235A, N297A, name in Kabat numbering)
# heavy: B1 heavy
# chain: B1 chain
# light: B1 light with D27Q, Q98P
# B32: GLS3000 Q27R one-arm antibody (antibody, human IgG1, kappa, L234A L235A, N297A, name in Kabat numbering)
# heavy: B1 heavy
# chain: B1 chain
# light: B1 light with D27R
# Target: T1, CD3ε homodimer protein (human, UniProt P07766 23-126, limits assumed)
# T1 construct: also called CD3 (CD3ε)
# Assay: SPR Biacore T200, CD3ε homodimer on chip;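 note: Light-chain single-residue variant antibodies injected over amine-coupled CD3ε homodimer on a CM4 chip at 25 °C, bound amount divided by that of the GLS3000-containing antibody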
# T1 sequence (P07766 23-126 limits assumed): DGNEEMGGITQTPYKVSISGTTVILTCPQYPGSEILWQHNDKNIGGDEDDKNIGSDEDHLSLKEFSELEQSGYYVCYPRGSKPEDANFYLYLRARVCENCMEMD
row,Binder,ratio of amount bound vs unaltered GLS3000
1,B1,0.85
2,B2,0.27
3,B3,0.7
4,B4,0.92
5,B5,0.75
6,B6,0.87
7,B7,0.89
8,B8,0.72
9,B9,0.41
10,B10,0.73
11,B11,0.56
12,B12,0.29
13,B13,0.89
14,B14,0.17
15,B15,0.67
16,B16,1.13

row,Binder,ratio of amount bound vs unaltered GLS3000
1,B17,0.63
2,B18,0.75
3,B19,0.85
4,B20,0.9
5,B21,0.87
6,B22,0.88
7,B23,0.96
8,B24,0.86
9,B25,0.19
10,B26,0.5
11,B27,0.37
12,B28,0.88
13,B29,0.83
14,B30,0.86
15,B31,0.25
16,B32,1.19
